We go through seven molecules from US20200332017A1 (SALUBRIS CHENGDU BIOTECH, published 2020).

Substitutions are numbered along the chain they refer to. Where two headings read alike, the source gives them in different places.

In assay [1] the target is T1, full length human CD40 (uniprot # P25942-1) on the membrane of 293T-CD40 cells (human, UniProt P25942 21-277).
T1 construct: also called cell surface CD40
Put plainly: flow cytometry on 293T-CD40 cells. As for the experimental part: (§1) 2×10⁵ cells per well in 96 well-plates were incubated with the mouse anti-CD40 antibodies or the controls of various concentrations in FACS buffer for 40 minutes on ice. […] Following an incubation of 40 minutes at 4° C. in dark, cells were washed three times and resuspended in FACS buffer. Fluorescence was measured using a Becton Dickinson FACS Canto II-HTS equipment and plotted against antibody concentration.
(Flow cytometry measures light scatter and fluorescence of single cells or particles in a stream.)

Assay [2] addresses T1, full length human CD40 (uniprot # …). Put plainly: cell-based or functional assay.
In assay [3] the target is T2, human CD40-Fc protein (amino acid residue 21-193 of SEQ ID NO: 67 linked to N-terminus of amino acid residue … (human, biotin-labeled in the capture ELISA and in the benchmark blocking ELISA; unlabeled when coated in the ligand blocking ELISA).
T2 construct: also called biotin-labeled human CD40-Fc; human CD40-Fc-biotin
Put plainly: competitive ELISA; coated human CD40-Fc, competitor biotin human CD40L-his. As to the method:
Briefly, human CD40-Fc proteins (amino acid residue 21-193 of SEQ ID NO: 67 linked to N-terminus of amino acid residue 99-330 of SEQ ID NO.: 24) were coated on 96-well micro plates at 2 μg/mL in coating buffer (PBS) and incubated overnight at 4° C. The next day, plates were washed with wash buffer (PBS+0.05% Tween-20, PBST), and blocked with 5% w/v non-fatty milk in PBST for 2 hours at 37° C. Plates were then washed again using wash buffer.
Serially diluted the mouse anti-CD40 antibodies of the present invention or the controls (starting at 200 nM with a four-fold serial dilution) in 2.5% w/v non-fatty milk in PBST were prepared to the plates and incubated with the human CD40-Fc proteins at room temperature for 40 minutes. […] Plates were washed again. 100 μl/well of streptavidin conjugated HRP was added and incubated for 40 minutes at 37° C. Plates were washed again using wash buffer. Finally, TMB was added and the reaction was stopped using 1M H₂SO₄, and the absorbance was read at 450 nm. Data were analyzed using Graphpad Prism software and IC₅₀ values were reported.
A general note: An ELISA detects its analyte on a solid surface through an enzyme-linked reagent.

The target of assay [4] is T2, human CD40-Fc protein (amino acid …). The assay is described as follows: capture ELISA; antibody captured, biotin-labeled human CD40-Fc in solution. As for the experimental part: (§2) Plates were washed 4 times with wash buffer (PBS+0.05% Tween-20, PBST) and then blocked with 200 μl/well blocking buffer (5% w/v non-fatty milk in PBST) for 2 hours at 37° C. […] After a final wash, plates were incubated with 100 μl/well ELISA substrate TMB (Innoreagents, Cat # TMB-S-002). The reaction was stopped in 15 minutes at 25° C. with 50 μl/well 1M H₂SO₄, and the absorbance was read at 450 nm and plotted against antibody concentration. Data were analyzed using Graphpad Prism software and EC₅₀ values were reported.

Assay [5] deals with T1, full length human CD40 (uniprot # …). Put plainly: flow cytometry on 293T-CD40 cells, PE-labeled secondary antibody, MFI. As for the experimental part:
as §1

Assay [6] concerns the target T2, human CD40-Fc protein (amino acid …). Put plainly: competitive ELISA; biotin human CD40-Fc in solution, competitor coated BM2. As for the experimental part: The ability of the mouse anti-CD40 antibodies of the present invention to block the binding of the Benchmark to human CD40 was measured using a competitive ELISA assay. […] The next day, plates were washed with wash buffer, and blocked with 5% w/v non-fatty milk in PBST for 2 hours at 37° C. Plates were then washed again using wash buffer. […] After incubation at 37° C. for 40 minutes, plates were washed 4 times using wash buffer. Then streptavidin conjugated HRP was added and incubated for 40 minutes at 37° C. to detect biotin-labeled human CD40-Fc bound to plates. Plates were washed again using wash buffer. Finally, TMB was added and the reaction was stopped using 1M H₂SO₄, and the absorbance was read at 450 nm. Data were analyzed using Graphpad Prism software and IC₅₀ values were reported.

Assay [7] addresses T3, Human CD40-his protein (Acro biosystems, Cat # CD0-H5228) (human, UniProt P25942 21-193).
T3 construct: Bought reagent; not shown: his tag
Put plainly: SPR, Biacore; antibody captured, human CD40-his flowed. The text has this:
Briefly, goat anti-mouse IgG (GE healthcare, Cat # BR100838, Mouse Antibody Capture Kit) was covalently linked to a CM5 or a Protein G chip (carboxy methyl dextran coated chip) via primary amines, using a standard amine coupling kit provided by Biacore (GE healthcare, Pittsburgh, Pa., USA). Un-reacted moieties on the biosensor surface were blocked with ethanolamine. […] Then, human CD40-his (Acro biosystems, Cat # CD0-H5228) or cynomolgus monkey CD40-his protein (Acro biosystems, Cat # CD0-052H6) in HBS EP buffer (provided by Biacore) was flowed onto the chip at a flow rate of 30 μL/min. The antigen-antibody association kinetics was followed for 2 minutes and the dissociation kinetics was followed for 10 minutes. The association and dissociation curves were fit to a 1:1 Langmuir binding model using BIA evaluation software.
On the technique in general: SPR reads the build-up and loss of mass on a sensor chip optically.

For assay [8], the target named is T2, human CD40-Fc protein (amino acid …). The assay is described as follows: capture ELISA; antibody captured, biotin-labeled human CD40-Fc in solution. As to the method:
as §2
The source holds these as a separate data set.

The target is the same in assay [9]. The assay is described as follows: capture ELISA, biotin human CD40-Fc; mAb at 400 ng/mL. As to the method: as §2
Assay [10] shares this target. Put plainly: capture ELISA, biotin human CD40-Fc; mAb at 10000 ng/mL. As to the method: as §2
Assay [11] has the same target. The assay is described as follows: capture ELISA, biotin human CD40-Fc; mAb at 3.2 ng/mL. As to the method:
as §2

The target is the same in assay [12]. Put plainly: capture ELISA, biotin human CD40-Fc; mAb at 0.64 ng/mL. As to the method:
as §2

For assay [13] the target is unchanged. Put plainly: capture ELISA, biotin human CD40-Fc; mAb at 2000 ng/mL. As for the experimental part:
as §2

The target is the same in assay [14]. Put plainly: capture ELISA, biotin human CD40-Fc; mAb at 0 ng/mL (blank). As to the method: as §2
For assay [15] the target is unchanged. The assay is described as follows: capture ELISA, biotin human CD40-Fc; mAb at 80 ng/mL. As for the experimental part: as §2
The target is the same in assay [16]. Put plainly: capture ELISA, biotin human CD40-Fc; mAb at 16 ng/mL. As to the method:
as §2

In general, EC50 refers to the concentration giving half of the maximal effect. A lower EC50 goes with a more potent agent. For orientation: IC50 means the concentration at which inhibition is half-maximal. Low values mean greater potency in that assay, high ones weaker potency in that assay. Broadly, the EC50 (read off the curve) is the concentration giving half of the maximal effect. A word on the Kd: it is the concentration at which binding is half-saturated. A word on the koff: it is the rate constant with which the complex falls apart. By kon is commonly meant the rate constant with which the complex forms.

B1: mouse anti-CD40 monoclonal antibody 1B2 (antibody, V domains shown)
VH: EVQLQQSGPELVKPGASVKMSCKASGYTFTDYVMHWVKQKPGQGLECIGYINPYNDGTKYNEKFKGKATLTSDKSSSAAYLELSSLTSEDSAVYYCARGFLRESWFGYWGQGTLVTVSA
VL: DVLMTQTPLSLPVSLGDQASISCRSSQNIVHSNGNTYLDWYLQKPGQSPKLLIYKVSNRFSGVPDRFSGSGSGTDFTLKINRVEAEDLGVYYCFQGSHVPPTFGAGTKLELK
notes: Purified from hybridoma supernatant; also called Mouse 1B2
As for B1, the EC50 was found to be 2.54 nM in assay [1] and 47.1 nM in assay [4]. The “Cell-based Reporter assay (EC50, nM)” value in assay [2] was determined as 6.36 nM. Besides, the IC50 is 315 nM in [3] and 4.76 nM in assay [6]. Also, in [5], the “EC50 (read off the curve)” value is about 3 nM.

B2: humanized antibody huC1C1-V6 (antibody, human IgG1, kappa, V domains shown)
VH: EVQLVESGGGVVQPGRSLRLSCAASGFTFSNYGMSWVRQAPGKGLEWVASISSGGDDTYYPDNVKGRCTISRDNSKNTLYLQMNSLRAEDTAVYYCTRAGGKAMDYWGQGTLVTVSS
VL: EIVLTQSPATLSLSPGERATLSCRASQSIRDNLHWYQQKPGQAPRLLIYYASQSISGIPARFSGSGSGTDFTLTISSLEPEDFAVYYCQQFNSWPLTFGQGTKVEIKR
notes: Human IgG1/kappa
In assay [7], B2 yielded a Kd of 11.6 nM, a dissociation rate constant (koff) of 0.00881 s⁻¹ and a kon of 763000 M⁻¹ s⁻¹.

B3: humanized antibody huC1C1-V1 (antibody, human IgG1, kappa, V domains shown)
VH: B2 VH
VL: B2 VL with A43S, Y49N, Y87F
notes: Human IgG1/kappa; also called humanized C1C1-V1
In assay [8], B3 registered an EC50 of 0.382 ng/mL. Also, the “absorbance at 450 nm” value in assay [9] turned out to be 1.73 OD450; in assay [10] it was 1.9 OD450; in [11], 0.083 OD450; in [12], 0.035 OD450; in assay [13], 1.78 OD450; in assay [14], 0.028 OD450. The figures for the “absorbance at 450 nm” value in [15] and in assay [16] were 1.12 OD450 and 0.353 OD450, respectively.

B4: humanized antibody huC1C1-V3 (antibody, human IgG1, kappa, V domains shown)
VH: B2 VH
VL: B2 VL with Y49N, Y87F
notes: Human IgG1/kappa
Regarding B4, in [8], a half-maximal response (EC50) required 0.336 ng/mL. Further, the “absorbance at 450 nm” value was determined as 1.72 OD450 in assay [9]; 1.8 OD450 in assay [10]; 0.083 OD450 in [11]; 0.032 OD450 in assay [12]; 1.71 OD450 in [13]; 0.024 OD450 in assay [14]. For the same molecule, the results for the “absorbance at 450 nm” value in assay [15] and in assay [16] were 1.15 OD450 and 0.357 OD450, respectively.

B5: humanized antibody huC1C1-V5 (antibody, human IgG1, kappa, V domains shown)
VH: B2 VH
VL: B2 VL with A43S, Y49N
notes: Human IgG1/kappa; also called humanized C1C1-V5
In the case of B5, in assay [8], the EC50 is 0.355 ng/mL. The “absorbance at 450 nm” value worked out at 1.66 OD450 in assay [9]; 1.77 OD450 in assay [10]; 0.083 OD450 in assay [11]; 0.033 OD450 in [12]; 1.68 OD450 in assay [13]; 0.027 OD450 in assay [14]. Moreover, the “absorbance at 450 nm” value in [15] came out at 1.1 OD450; in assay [16] it was 0.34 OD450.

B6: humanized antibody huC1C1-V4 (antibody, human IgG1, kappa, V domains shown)
VH: B2 VH
VL: B2 VL with A43S, Y87F
notes: Human IgG1/kappa
Regarding B6, it took 0.267 ng/mL to reach a half-maximal effect in assay [8] (EC50). The “absorbance at 450 nm” value is 1.63 OD450 in assay [9]; 1.84 OD450 in assay [10]; 0.103 OD450 in [11]; 0.039 OD450 in assay [12]; 1.7 OD450 in assay [13]; 0.025 OD450 in [14]. Also, the “absorbance at 450 nm” value was 1.25 OD450 in assay [15] and 0.459 OD450 in [16].

B7: humanized antibody huC1C1-V2 (antibody, human IgG1, kappa, V domains shown)
VH: B2 VH with C68F
VL: B2 VL with A43S, Y49N, Y87F
notes: Human IgG1/kappa
Consider B7, for which the EC50 in assay [8] came to 0.428 ng/mL. Moreover, the “absorbance at 450 nm” value in [9] came to 1.62 OD450; in assay [10], 1.82 OD450; in assay [11] it was 0.073 OD450; in assay [12], 0.029 OD450; in [13], 1.72 OD450; in [14], 0.027 OD450. Also, the “absorbance at 450 nm” value in [15] amounted to 1.02 OD450; in [16], 0.3 OD450.
